In patent US20220411483A1 (Chugai, published 2022):

Columns and labels:
[1] = biological target: T1, FcγRIIa R type extracellular domain with C-terminal His tag (human, UniProt P12318 34-217); test: SPR, antibody captured, FcgR analyte
T1 construct: extracellular domain; also called FcgRIIaR; not shown: His tag at the C terminus
T1 sequence (looked up): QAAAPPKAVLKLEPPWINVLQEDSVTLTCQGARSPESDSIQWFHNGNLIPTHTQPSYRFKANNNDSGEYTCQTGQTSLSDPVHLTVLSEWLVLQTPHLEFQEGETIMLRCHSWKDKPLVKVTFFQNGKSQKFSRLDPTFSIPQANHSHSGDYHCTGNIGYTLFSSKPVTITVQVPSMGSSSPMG

[2] = biological target: T2, FcγRIIb extracellular domain with C-terminal His tag (human, UniProt P31994 43-217); test: SPR, antibody captured, FcgR analyte
T2 construct: extracellular domain; also called FcgRIIb; not shown: His tag at the C terminus
T2 sequence (looked up): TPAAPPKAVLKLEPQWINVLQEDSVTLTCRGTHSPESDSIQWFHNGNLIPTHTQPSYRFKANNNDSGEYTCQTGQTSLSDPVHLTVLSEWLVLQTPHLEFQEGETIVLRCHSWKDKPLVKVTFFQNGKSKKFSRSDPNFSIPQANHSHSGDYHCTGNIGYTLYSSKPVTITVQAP

[3] = biological target: T3, FcγRIa extracellular domain with C-terminal His tag (human, UniProt P12314 16-292); test: SPR, antibody captured, FcgR analyte
T3 construct: also called FcgRIa; CD64; not shown: His tag at the C terminus
T3 sequence (P12314 16-292): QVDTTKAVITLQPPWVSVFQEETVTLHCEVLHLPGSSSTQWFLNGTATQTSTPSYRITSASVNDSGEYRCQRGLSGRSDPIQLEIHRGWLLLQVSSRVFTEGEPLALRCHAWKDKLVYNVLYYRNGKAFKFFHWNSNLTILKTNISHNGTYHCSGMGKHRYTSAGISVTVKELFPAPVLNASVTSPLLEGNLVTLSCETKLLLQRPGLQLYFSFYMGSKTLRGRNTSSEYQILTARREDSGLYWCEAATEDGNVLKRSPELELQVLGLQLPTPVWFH

[4] = biological target: T4, human FcγRIIa H type extracellular domain with C-terminal His tag (human, UniProt P12318 34-217); test: SPR, KD of IL6R-G1d/IL6R-L divided by KD of variant
T4 construct: extracellular domain; also called FcgRIIaH
T4 sequence (looked up): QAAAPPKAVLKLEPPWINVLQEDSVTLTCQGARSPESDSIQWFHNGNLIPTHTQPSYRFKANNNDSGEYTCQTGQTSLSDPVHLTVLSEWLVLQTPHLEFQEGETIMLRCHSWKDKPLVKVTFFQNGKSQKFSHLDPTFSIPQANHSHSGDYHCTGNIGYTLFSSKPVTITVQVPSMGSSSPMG

[5] = biological target: T5, human FcγRIIa R type extracellular domain with C-terminal His tag (human, UniProt P12318 34-217); test: as above
T5 construct: extracellular domain; also called FcgRIIaR
T5 sequence (looked up): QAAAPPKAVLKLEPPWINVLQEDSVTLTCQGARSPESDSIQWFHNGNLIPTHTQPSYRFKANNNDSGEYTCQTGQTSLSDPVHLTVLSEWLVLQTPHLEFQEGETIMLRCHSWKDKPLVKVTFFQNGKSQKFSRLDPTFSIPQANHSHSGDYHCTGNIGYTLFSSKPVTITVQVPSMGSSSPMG

[6] = biological target: T6, human FcγRIa extracellular domain with C-terminal His tag (human, UniProt P12314 16-292); test: as above
T6 construct: Whole entry named; also called FcgRIa
T6 sequence (P12314 16-292): as the sequence (P12314 16-292) above

[7] = biological target: T7, human FcγRIIb extracellular domain with C-terminal His tag (human, UniProt P31994 43-217); test: as above
T7 construct: extracellular domain; also called FcgRIIb
T7 sequence (looked up): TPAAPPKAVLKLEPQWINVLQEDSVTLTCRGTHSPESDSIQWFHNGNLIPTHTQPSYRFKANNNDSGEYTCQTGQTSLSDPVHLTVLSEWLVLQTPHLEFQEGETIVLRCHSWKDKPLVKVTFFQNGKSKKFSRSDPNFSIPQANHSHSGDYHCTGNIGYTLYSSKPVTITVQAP

[8] = biological target: T8, human FcγRIIIa V type extracellular domain with C-terminal His tag (human, UniProt P08637 17-208); test: as above
T8 construct: extracellular domain; also called FcgRIIIaV
T8 sequence (P08637 17-208 F176V): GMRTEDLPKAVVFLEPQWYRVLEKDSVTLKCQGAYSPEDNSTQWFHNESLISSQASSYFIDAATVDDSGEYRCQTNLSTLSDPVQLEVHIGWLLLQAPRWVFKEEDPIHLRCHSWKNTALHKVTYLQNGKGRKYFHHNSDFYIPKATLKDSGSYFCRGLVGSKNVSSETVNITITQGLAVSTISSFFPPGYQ

[9] = biological target: T9, human complement C1q (human, UniProt P02745 23-245; P02746 28-253; P02747 29-245); test: SPR, C1q bound per antibody captured on Protein L
T9 construct: Bought (PROSPEC or Calbiochem); also called human C1q
T9 sequence (P02745 23-245 limits assumed, chain 1 of 3): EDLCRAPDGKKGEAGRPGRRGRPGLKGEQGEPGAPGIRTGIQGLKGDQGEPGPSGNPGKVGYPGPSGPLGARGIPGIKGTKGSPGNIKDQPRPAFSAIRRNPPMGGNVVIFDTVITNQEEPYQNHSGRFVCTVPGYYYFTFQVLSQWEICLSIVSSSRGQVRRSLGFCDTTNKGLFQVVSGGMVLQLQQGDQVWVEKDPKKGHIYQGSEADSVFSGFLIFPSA
T9 sequence (P02746 28-253 limits assumed, chain 2 of 3): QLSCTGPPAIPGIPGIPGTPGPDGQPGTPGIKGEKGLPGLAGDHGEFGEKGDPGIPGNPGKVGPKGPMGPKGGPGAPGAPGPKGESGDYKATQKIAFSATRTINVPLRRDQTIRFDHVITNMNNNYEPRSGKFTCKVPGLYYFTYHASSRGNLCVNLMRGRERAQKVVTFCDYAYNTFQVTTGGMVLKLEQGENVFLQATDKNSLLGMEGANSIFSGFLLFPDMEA
T9 sequence (P02747 29-245 limits assumed, chain 3 of 3): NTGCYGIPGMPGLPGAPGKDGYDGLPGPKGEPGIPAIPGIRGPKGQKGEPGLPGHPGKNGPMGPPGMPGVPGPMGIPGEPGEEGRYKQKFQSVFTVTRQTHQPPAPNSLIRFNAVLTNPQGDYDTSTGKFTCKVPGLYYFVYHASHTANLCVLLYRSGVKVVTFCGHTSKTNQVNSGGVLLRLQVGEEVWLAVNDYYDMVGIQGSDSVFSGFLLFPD
Protocol: The interaction between an antibody and human C1q was analyzed using Biacore T200 (GE Healthcare). HBS-EP+ (GE Healthcare) was used as the running buffer, and the measurement temperature was set at 25° C. Chips produced by immobilizing Protein L (ACTIGEN or BioVision) onto Series S sensor Chip CM4 (GE Healthcare) by amine coupling were used.
The antibodies of interest were captured onto these sensor chips, and allowed to interact with human complement C1q (PROSPEC or Calbiochem) diluted in the running buffer. The amount of antibody binding was determined, and comparisons were made among the antibodies. However, since the amount of C1q bound depends on the amount of captured antibodies, corrected values obtained by dividing the amount of C1q bound by the amount of each antibody captured were compared. Furthermore, by reaction with 10 mM glycine-HCl, pH 1.5, the antibodies captured onto the sensor chips were washed, and the sensor chips were recycled and reused.

[10] = biological target: T10, FcgRIIaR (human, UniProt P12318 34-217); test: SPR, amount bound per captured antibody
T10 construct: extracellular domain; also called FcγRIIa R type; FcγRIIa (R type)
T10 sequence (looked up): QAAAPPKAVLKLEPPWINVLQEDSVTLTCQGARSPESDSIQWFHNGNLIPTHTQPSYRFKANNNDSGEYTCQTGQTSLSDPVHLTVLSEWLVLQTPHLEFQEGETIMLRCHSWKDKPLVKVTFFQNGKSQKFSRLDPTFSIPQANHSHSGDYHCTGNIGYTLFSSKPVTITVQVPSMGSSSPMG

[11] = biological target: T11, FcgRIIb (human, UniProt P31994 43-217); test: SPR, amount bound per captured antibody
T11 construct: extracellular domain; also called FcγRIIb
T11 sequence (looked up): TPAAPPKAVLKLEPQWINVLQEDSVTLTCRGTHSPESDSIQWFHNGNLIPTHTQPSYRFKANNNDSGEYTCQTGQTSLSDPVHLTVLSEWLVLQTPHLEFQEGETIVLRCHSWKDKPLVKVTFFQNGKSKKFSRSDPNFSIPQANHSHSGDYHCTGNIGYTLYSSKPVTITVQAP

Binder	Amount of C1q-binding when that for G1d is Defined as 100 [9] [G1d=100]	Relative FcgRIIaR-binding Activity [10] [IL6R-G1d/IL6R-L=100]	Relative FcgRIIb-binding Activity [11] [IL6R-G1d/IL6R-L=100]	other results
IL6R-BP555/IL6R-L (antibody, human IgG1, kappa, name in EU numbering, human IgG1) heavy: QVQLQESGPGLVKPSETLSLTCAVSGHSISHDHAWSWVRQPPGEGLEWIGFISYSGITNYNPSLQGRVTISRDNSKNTLYLQMNSLRAEDTAVYYCARSLARTTAMDYWGEGTLVTVSSASTKGPSVFPLAPSSKSTSGGTAALGCLVKDYFPEPVTVSWNSGALTSGVHTFPAVLQSSGLYSLSSVVTVPSSSLGTQTYICNVNHKPSNTKVDKKVEPKSCDKTHTCPPCPAPELLGDDSVFLFPPKPKDTLMISRTPEVTCVVIDVAEEDGDVKFNWYVDGVEVHNAKTKPREEQDNSTYRVVSVLTVLHQDWLNGKEYKCKVSNKALPRPIEKTISKAKGQPREPQVYTLPPSRDELTKNQVSLTCLVKGFYPSDIAVEWESNGQPENNYKTTPPVLDSDGSFFLYSKLTVDKSRWQQGNVFSCSVMHEALHNHYTQESLSLSP light: not shown	–	–	–	Kd [1]: 160 nM; Kd [2]: 4.1 nM; Kd [3]: 9.4 nM
IL6R-BP561/IL6R-L (antibody, human IgG1, kappa, name in EU numbering, human IgG1) heavy: QVQLQESGPGLVKPSETLSLTCAVSGHSISHDHAWSWVRQPPGEGLEWIGFISYSGITNYNPSLQGRVTISRDNSKNTLYLQMNSLRAEDTAVYYCARSLARTTAMDYWGEGTLVTVSSASTKGPSVFPLAPSSKSTSGGTAALGCLVKDYFPEPVTVSWNSGALTSGVHTFPAVLQSSGLYSLSSVVTVPSSSLGTQTYICNVNHKPSNTKVDKKVEPKSCDKTHTCPPCPAPDLLGDDSVFLFPPKPKDTLMISRTPEVTCVVVDVSDEDGDVKFNWYVDGVEVHNAKTKPREEQDNSTYRVVSVLTVLHQDWLNGKEYKCKVSNKALPRPIEKTISKAKGQPREPQVYTLPPSRDELTKNQVSLTCLVKGFYPSDIAVEWESNGQPENNYKTTPPVLDSDGSFFLYSKLTVDKSRWQQGNVFSCSVMHEALHNHYTQESLSLSP light: not shown	–	–	–	Kd [1]: 510 nM; Kd [2]: 18 nM; Kd [3]: 9.4 nM
IL6R-P587/IL6R-L (antibody, human IgG1, kappa) heavy: QVQLQESGPGLVKPSETLSLTCAVSGHSISHDHAWSWVRQPPGEGLEWIGFISYSGITNYNPSLQGRVTISRDNSKNTLYLQMNSLRAEDTAVYYCARSLARTTAMDYWGEGTLVTVSSASTKGPSVFPLAPSSKSTSGGTAALGCLVKDYFPEPVTVSWNSGALTSGVHTFPAVLQSSGLYSLSSVVTVPSSSLGTQTYICNVNHKPSNTKVDKKVEPKSCDKTHTCPPCPAPDLLGGDSVFLFPPKPKDTLMISRTPEVTCVVIDVAEEDGEVKFNWYVDGVEVHNAKTKPREEQYNSTYRVVSVLTVLHQDWLNGKEYKCKVSNKALPAPIEKTISKAKGQPREPQVYTLPPSRDELTKNQVSLTCLVKGFYPSDIAVEWESNGQPENNYKTTPPVLDSDGSFFLYSKLTVDKSRWQQGNVFSCSVMHEALHNHYTQKSLSLSP light: not shown	–	–	–	Relative FcgRIIaH-binding Activity [4]: 0.044; Relative FcgRIIaR-binding Activity [5]: 0.92; Relative FcgRIa-binding Activity [6]: 0.451; Relative FcgRIIb-binding Activity [7]: 75; Relative FcgRIIIaV-binding Activity [8]: 0.012
IL6R-G1dGSS/IL6R-L (antibody, human IgG1, kappa) heavy: QVQLQESGPGLVKPSETLSLTCAVSGHSISHDHAWSWVRQPPGEGLEWIGFISYSGITNYNPSLQGRVTISRDNSKNTLYLQMNSLRAEDTAVYYCARSLARTTAMDYWGEGTLVTVSSASTKGPSVFPLAPSSKSTSGGTAALGCLVKDYFPEPVTVSWNSGALTSGVHTFPAVLQSSGLYSLSSVVTVPSSSLGTQTYICNVNHKPSNTKVDKKVEPKSCDKTHTCPPCPAPELLGGPSVFLFPPKPKDTLMISRTPEVTCVVVDVSHEDPEVKFNWYVDGVEVHNAKTKPREEQYNSTYRVVSVLTVLHQDWLNGKEYKCKVSNKGLPSSIEKTISKAKGQPREPQVYTLPPSRDELTKNQVSLTCLVKGFYPSDIAVEWESNGQPENNYKTTPPVLDSDGSFFLYSKLTVDKSRWQQGNVFSCSVMHEALHNHYTQKSLSLSP light: not shown	15.2	98.5	115	–
IL6R-P555/IL6R-L (antibody, human IgG1, kappa) heavy: QVQLQESGPGLVKPSETLSLTCAVSGHSISHDHAWSWVRQPPGEGLEWIGFISYSGITNYNPSLQGRVTISRDNSKNTLYLQMNSLRAEDTAVYYCARSLARTTAMDYWGEGTLVTVSSASTKGPSVFPLAPSSKSTSGGTAALGCLVKDYFPEPVTVSWNSGALTSGVHTFPAVLQSSGLYSLSSVVTVPSSSLGTQTYICNVNHKPSNTKVDKKVEPKSCDKTHTCPPCPAPELLGDDSVFLFPPKPKDTLMISRTPEVTCVVVDVSDEDGEVKFNWYVDGVEVHNAKTKPREEQYNSTYRVVSVLTVLHQDWLNGKEYKCKVSNKALPAPIEKTISKAKGQPREPQVYTLPPSRDELTKNQVSLTCLVKGFYPSDIAVEWESNGQPENNYKTTPPVLDSDGSFFLYSKLTVDKSRWQQGNVFSCSVMHEALHNHYTQKSLSLSP light: not shown	–	83.8	305	–
IL6R-P556/IL6R-L (antibody, human IgG1, kappa) heavy: QVQLQESGPGLVKPSETLSLTCAVSGHSISHDHAWSWVRQPPGEGLEWIGFISYSGITNYNPSLQGRVTISRDNSKNTLYLQMNSLRAEDTAVYYCARSLARTTAMDYWGEGTLVTVSSASTKGPSVFPLAPSSKSTSGGTAALGCLVKDYFPEPVTVSWNSGALTSGVHTFPAVLQSSGLYSLSSVVTVPSSSLGTQTYICNVNHKPSNTKVDKKVEPKSCDKTHTCPPCPAPDLLGDDSVFLFPPKPKDTLMISRTPEVTCVVVDVSDEDGEVKFNWYVDGVEVHNAKTKPREEQYNSTYRVVSVLTVLHQDWLNGKEYKCKVSNKALPAPIEKTISKAKGQPREPQVYTLPPSRDELTKNQVSLTCLVKGFYPSDIAVEWESNGQPENNYKTTPPVLDSDGSFFLYSKLTVDKSRWQQGNVFSCSVMHEALHNHYTQKSLSLSP light: not shown	33.5	81.7	294	–
IL6R-P559/IL6R-L (antibody, human IgG1, kappa) heavy: QVQLQESGPGLVKPSETLSLTCAVSGHSISHDHAWSWVRQPPGEGLEWIGFISYSGITNYNPSLQGRVTISRDNSKNTLYLQMNSLRAEDTAVYYCARSLARTTAMDYWGEGTLVTVSSASTKGPSVFPLAPSSKSTSGGTAALGCLVKDYFPEPVTVSWNSGALTSGVHTFPAVLQSSGLYSLSSVVTVPSSSLGTQTYICNVNHKPSNTKVDKKVEPKSCDKTHTCPPCPAPELLGDDSVFLFPPKPKDTLMISRTPEVTCVVVDVSEEDGEVKFNWYVDGVEVHNAKTKPREEQYNSTYRVVSVLTVLHQDWLNGKEYKCKVSNKALPAPIEKTISKAKGQPREPQVYTLPPSRDELTKNQVSLTCLVKGFYPSDIAVEWESNGQPENNYKTTPPVLDSDGSFFLYSKLTVDKSRWQQGNVFSCSVMHEALHNHYTQKSLSLSP light: not shown	34.1	89.4	319	–
